Data taken from IntAct's records for PubMed 23468526.

B1: Moesin/ezrin/radixin homolog 1 (Drosophila melanogaster (Fruit fly)), P46150 (parent)
chain: MSPKALNVRVTTMDAELEFAIQSTTTGKQLFDQVVKTIGLREVWFFGLQYTDSKGDSTWIKLYKKVMNQDVKKENPLQFRFRAKFYPEDVAEELIQDITLRLFYLQVKNAILTDEIYCPPETSVLLASYAVQARHGDHNKTTHTAGFLANDRLLPQRVIDQHKMSKDEWEQSIMTWWQEHRSMLREDAMMEYLKIAQDLEMYGVNYFEIRNKKGTDLWLGVDALGLNIYEQDDRLTPKIGFPWSEIRNISFSEKKFIIKPIDKKAPDFMFFAPRVRINKRILALCMGNHELYMRRRKPDTIDVQQMKAQAREEKNAKQQEREKLQLALAARERAEKKQQEYEDRLKQMQEDMERSQRDLLEAQDMIRRLEEQLKQLQAAKDELELRQKELQAMLQRLEEAKNMEAVEKLKLEEEIMAKQMEVQRIQDEVNAKDEETKRLQDEVEDARRKQVIAAEAAAALLAASTTPQHHHVAEDENENEEELTNGDAGGDVSRDLDTDEHIKDPIEDRRTLAERNERLHDQLKALKQDLAQSRDETKETANDKIHRENVRQGRDKYKTLREIRKGNTKRRVDQFENM
partner: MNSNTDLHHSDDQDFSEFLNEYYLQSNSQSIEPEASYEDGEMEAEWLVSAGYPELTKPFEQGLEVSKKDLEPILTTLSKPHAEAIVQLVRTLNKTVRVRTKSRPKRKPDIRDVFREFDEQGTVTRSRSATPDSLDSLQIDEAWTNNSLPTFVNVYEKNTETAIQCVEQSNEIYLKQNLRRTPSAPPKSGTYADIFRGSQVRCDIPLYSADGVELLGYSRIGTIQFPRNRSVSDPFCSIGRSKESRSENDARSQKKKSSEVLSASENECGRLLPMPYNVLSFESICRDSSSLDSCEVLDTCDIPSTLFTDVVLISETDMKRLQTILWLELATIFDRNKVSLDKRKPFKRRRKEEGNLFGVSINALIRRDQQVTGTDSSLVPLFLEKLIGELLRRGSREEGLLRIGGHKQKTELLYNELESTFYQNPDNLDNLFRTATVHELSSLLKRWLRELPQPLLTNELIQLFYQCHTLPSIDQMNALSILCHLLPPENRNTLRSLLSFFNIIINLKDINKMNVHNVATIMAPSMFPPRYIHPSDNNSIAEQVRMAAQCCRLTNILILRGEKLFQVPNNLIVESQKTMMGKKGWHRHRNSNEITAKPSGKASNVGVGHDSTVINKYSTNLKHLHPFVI

Variants of: B1
Details: with conu_drome conu

Variant | effect of a mutation on the interaction
MSPKALNVRVTTMDAELEFAIQSTTTGKQLFDQVVKTIGLREVWFFGLQYTDSKGDSTWIKLYKKVMNQDVKKENPLQFRFRAKFYPEDVAEELIQDITLRLFYLQVKNAILTDEIYCPPETSVLLASYAVQARHGDHNKTTHTAGFLANDRLLPQRVIDQHKMSKDEWEQSIMTWWQEHRSMLREDAMMEYLKIAQDLEMYGVNYFEIRNKKGTDLWLGVDALGLNIYEQDDRLTPKIGFPWSEIRNISFSEKKFIIKPIDKKAPDFMFFAPRVRINKRILALCMGNHELYMRRRKPDTIDVQQMKAQAREEKNAKQQEREKLQLALAARERAEKKQQEYEDRLKQMQEDMERSQRDLLEAQDMIRRLEEQLKQLQAAKDELELRQKELQAMLQRLEEAKNMEAVEKLKLEEEIMAKQMEVQRIQDEVNAKDEETKRLQDEVEDARRKQVIAAEAAAALLAASTTPQHHHVAEDENENEEELTNGDAGGDVSRDLDTDEHIKDPIEDRRTLAERNERLHDQLKALKQDLAQSRDETKETANDKIHRENVRQGRDKYKDLREIRKGNTKRRVDQFENM [T559D] | increasing interaction strength
